Laboratory results taken from the MegaScale stability set (Tsuboyama et al. 2023).

B1: r4_43_TrROS_Hall (parent)
chain: DLVTIKVPLENLEEIKKAAEKAGFKIVSISYDKENKEVTIVIEKKK

Variants of: B1
Assay: folding stability dG (cDNA display proteolysis); higher = more stable
Settings: PBS, room temperature

Folding stability dG [kcal/mol], by site and new letter:
I5: D 2.34, N 2.61, R 3.1, K 3.27, Q 3.15, C 3.01, S 2.9, T 3.42, G 1.98, L 4.01, H 3.23, F 4.32, Y 4.42, A 3.14, V 3.79, M 3.79, E 2.86, W 4.23, P 1.48
K6: M 3.31, S 3.52, W 3.39, I 3.75, P 2.42, Y 3.48, A 3.51, C 3.32, Q 3.04, E 2.83, T 3.77, V 3.5, R 3.84, F 3.62, L 3.31, H 3.71, D 2.82, N 3.37, G 2.98
A22: E 3.2, D 3.13, F 3.67, H 3.64, G 3.52, C 3.79
A19: F 3.52, Q 3.37, C 3.44, P 1.44, N 3.55, W 3.99, Y 3.68, V 3.97, D 1.76, G 3.23, E 2.89, K 3.32, M 3.95, L 3.69, I 3.61, R 3.11, H 3.45, S 3.69, T 3.8
V7: F 3.46, E 2.93, L 3.51, Y 3.24, G 3.46, M 3.63, D 1.97, N 2.53, S 3.71, Q 3.04, A 3.81, H 3.12, T 3.57, P 2.19, C 3.66, R 3.3, I 3.6, W 3.44, K 3.01
K16: C 3.47, T 3.88, P 1.97, V 3.6, S 3.58, M 3.58, H 3.29, L 3.61, W 3.8, N 3.35, R 3.37, G 3.4, D 2.66, Y 4.02, F 3.62, A 3.75, I 3.9, E 3.29, Q 3.57
E20: C 3.67, K 3.62, Q 3.28, G 3.43, H 3.6, S 3.66, N 3.55, I 3.65, V 3.56, P 3.12, W 3.99, F 4.07, R 3.72, L 3.96, D 3.49, T 3.27, A 3.68, M 3.72, Y 3.92
I15: P 1.54, A 4.01, T 3.38, Y 3.88, Q 3.58, N 3.08, R 3.42, G 3.06, V 3.87, F 4.13, E 3.39, C 3.45, L 3.71, D 2.44, M 3.42, S 3.41, H 3.73, K 3.37, W 4.14
E10: A 3.8, Q 3.52, S 3.85, P 3.48, F 3.75, K 3.61, R 3.72, V 3.68, L 3.59, D 3.29, I 3.86, H 3.41, G 3.58, T 3.75, W 3.79, N 4.02, Y 3.77, M 4.03, C 3.35
T4: Y 4.13, W 3.88, V 3.48, R 3.52, S 3.78, Q 3.38, P 3.02
E14: H 4.06, Y 3.75, M 3.89, T 3.76, C 4.03, R 3.78, W 3.86, F 3.99, P 3.95, I 3.71, G 3.86, Q 3.56, A 3.78, K 3.43, S 3.7, D 3.68, N 3.83, V 3.71, L 3.53
L12: G 3.16, D 2.46, E 3.55, P 1.92, N 2.46, T 3.23, H 3.41, A 3.63, I 3.73, K 3.03, Q 3.25, V 3.56, Y 3.64, R 2.8, M 3.77, W 3.67, S 3.38, F 3.75
K21: Q 3.9, E 2.94, N 3.42, P 2.74, G 3.83, D 3.16, A 3.79, C 3.87, L 3.57, S 3.93, M 4.03, V 3.93, W 4.37, H 3.78, Y 4.25, R 4.07, I 3.93, F 4.43, T 3.9
N11: R 4.15, P 2.5, H 3.83, I 3.73, F 3.59, Q 3.76, G 3.34, L 3.67, S 3.42, E 3.27, M 3.51, A 3.83, W 3.63, K 3.65, D 3.4, Y 4.11, T 3.59, V 3.87, C 3
K17: L 3.73, P 2.14, S 3.72, H 3.83, T 3.65, Y 4.27, R 3.43, W 4.21, M 3.82, D 3.44, N 3.17, V 3.69, E 3.45, I 3.8, C 3.75, G 3.73, A 3.56, Q 3.75, F 4
L9: I 3.61, S 3.47, V 3.6, Y 3.39, F 3.69, M 3.53, W 3.92, Q 3.49, R 3.59, H 3.57, E 3.46, G 3.08, D 3.42, N 3.58, K 3.66, T 3.46, P 3.53, A 3.66
P8: F 3.75, Q 3.53, R 3.27, V 3.72, I 3.5, E 3.19, W 3.7, S 3.49, H 4.12, A 3.6, T 3.68, Y 3.62, D 3.39, N 3.58, L 3.95, G 3.77, K 3.71, C 3.58, M 3.81
A18: V 3.73, F 3.45, G 3.34, W 4.29, E 3.65, Q 3.62, T 3.43, K 3.86, L 3.55, N 3.5, I 3.67, P 1.8, R 3.72, C 3.97, H 3.77, M 3.94, Y 3.84, S 3.65, D 3.57
E13: G 3.63, V 3.61, R 3.2, F 3.99, S 3.54, K 3.62, Q 3.6, A 3.28, L 3.9, M 3.68, C 3.74, H 3.55, I 3.69, N 3.6, D 3.64, Y 3.77, T 3.46, W 4.08, P 3.52
